Measurements taken from PMC7135997, “Cardiac myosin regulatory light chain kinase modulates cardiac contractility by phosphorylating both myosin regulatory light chain and troponin I” (The Journal of Biological Chemistry, 2020).

Columns and labels:
rat cardiac troponin C = rat cardiac troponin C (rat, UniProt Q4PP99 1-161); test: SEC-MALS; complex reconstituted from the three separately purified subunits mixed 1:1:1 in 6 mol/liter urea, dialysed, purified on Resource-Q; Superdex 200 5/150 GL in 50 mmol/liter Tris-HCl (pH 7.4), 5 mM MgCl2, 1 mmol/liter CaCl2, 100 mM NaCl, 100 mmol/liter tris(2-carboxyethyl)phosphine; also characterized by HPLC and ESI-MS; details: both partners purified
rat cardiac troponin I = target: T1, rat cardiac troponin I (rat, UniProt P23693 1-211); test: as above; details: both partners purified
T1 construct: cardiac troponin I, rat, cloned from a rat heart cDNA library into pET3a, codon-optimized; No tag is named; unphosphorylated recombinant protein; also called rcTnI; rat cTnI; source: E. coli BL21(DE3)-RIPL, inclusion bodies, purified (CM Sepharose in 6 mol/liter urea)
T1 sequence (P23693 whole entry): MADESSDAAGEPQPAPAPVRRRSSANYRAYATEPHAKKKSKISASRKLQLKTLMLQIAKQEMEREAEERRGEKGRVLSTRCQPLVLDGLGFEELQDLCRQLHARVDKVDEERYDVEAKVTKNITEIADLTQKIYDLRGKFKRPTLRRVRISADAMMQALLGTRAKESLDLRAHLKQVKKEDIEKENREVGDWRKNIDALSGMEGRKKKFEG

B1: rat cardiac troponin T (natural protein)
chain: not shown
notes: cardiac troponin T, rat, cloned from a rat heart cDNA library into pET3a, codon-optimized; also called rat cTnT; rcTnT; source: E. coli BL21(DE3)-RIPL, soluble fraction, purified (ion exchange, similar method to rcTnI)
stoichiometry N (rat cardiac troponin C): 1 | stoichiometry N (rat cardiac troponin I): 1
